Measured values reported in publication PMC4102245, “A molecular model for the role of SYCP3 in meiotic chromosome organisation” (eLife, 2014).
Substitutions are numbered along the chain they refer to.

Columns and labels:
[1] = molecular target: SYCP3_(ΔCt6) (human SYCP3 amino acids 1–230) (human) (UniProt Q8IZU3); assay: SEC-MALS; Superdex 200 Increase 10/300 GL, 20 mM Tris pH 8.0, 500 mM KCl; oligomer size of the eluted peak
[2] = molecular target: SYCP3_(ΔNt6) (full length human SYCP3 with 69-EVQNML-74 mutated to alanines) (human) (UniProt Q8IZU3); assay: as above
[3] = molecular target: the molecule itself; assay: SEC-MALS; Superdex 200 10/300 GL, 100 μl of 2–3 mg/ml, 20 mM Tris pH 8.0, 150 mM KCl, 25°C; oligomer size of the eluted peak
[4] = molecular target: the molecule itself; assay: SEC-MALS; Superdex 200 10/300 GL, 100 μl of 2–3 mg/ml, 20 mM Tris pH 8.0, 500 mM KCl, 25°C; oligomer size of the eluted peak
[5] = molecular target: the molecule itself; assay: SEC-MALS; Superdex 200 Increase 10/300 GL, 20 mM Tris pH 8.0, 500 mM KCl; oligomer size of the eluted peak
SYCP3 dCt6 WT = molecular target: T1, SYCP3 dCt6 WT (human, UniProt Q8IZU3 1-230); assay: fluorescence anisotropy; Kd per SYCP3 tetramer; 20 mM Tris pH 8.0, 150 mM KCl; FA at 25 C with 25 nM DNA (0-20 uM protein); EMSA 5 min at 4 C with 18.7 uM (per bp) DNA (0-40 uM protein), 0.5% agarose, 0.5x TBE; conditions: protein: recombinant; tags: N-terminal His6, TEV-cleaved; chain copies: 4; label: 5' FAM
T1 sequence: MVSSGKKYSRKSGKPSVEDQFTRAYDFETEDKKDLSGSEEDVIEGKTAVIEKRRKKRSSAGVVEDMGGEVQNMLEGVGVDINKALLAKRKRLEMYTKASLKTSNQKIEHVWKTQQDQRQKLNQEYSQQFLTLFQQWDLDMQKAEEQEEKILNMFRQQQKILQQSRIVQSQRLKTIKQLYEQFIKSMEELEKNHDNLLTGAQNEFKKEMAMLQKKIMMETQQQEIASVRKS

SYCP3_(ΔCt6) (human SYCP3 amino acids 1–230) (from UniProt Q8IZU3 1-230) (domain or fragment)
stoichiometry N [1]: 4

SYCP3_(ΔNt6) (full length human SYCP3 with 69-EVQNML-74 mutated to alanines) (from UniProt Q8IZU3 1-236)
stoichiometry N [2]: 4

B1: SYCP3_(Core) (human SYCP3 amino acids 66–230) (domain or fragment, UniProt Q8IZU3 66-230, looked up)
chain: MGGEVQNMLEGVGVDINKALLAKRKRLEMYTKASLKTSNQKIEHVWKTQQDQRQKLNQEYSQQFLTLFQQWDLDMQKAEEQEEKILNMFRQQQKILQQSRIVQSQRLKTIKQLYEQFIKSMEELEKNHDNLLTGAQNEFKKEMAMLQKKIMMETQQQEIASVRKS
notes: Synaptonemal complex protein 3 (SYCP3), human, Swissprot Q8IZU3, amino acids 66-230; Cloned in pHAT4 with an N-terminal TEV-cleavable His6 tag; homotetramer by SEC-MALS, AUC and crystal structure; also called SYCP_(Core); not shown: His6, N-terminal, cleaved
stoichiometry N [3]: 4

B2: SYCP3FL (full length human SYCP3, amino acids 1–236) (natural protein, UniProt Q8IZU3 1-236, looked up)
chain: MVSSGKKYSRKSGKPSVEDQFTRAYDFETEDKKDLSGSEEDVIEGKTAVIEKRRKKRSSAGVVEDMGGEVQNMLEGVGVDINKALLAKRKRLEMYTKASLKTSNQKIEHVWKTQQDQRQKLNQEYSQQFLTLFQQWDLDMQKAEEQEEKILNMFRQQQKILQQSRIVQSQRLKTIKQLYEQFIKSMEELEKNHDNLLTGAQNEFKKEMAMLQKKIMMETQQQEIASVRKSLQSMLF
notes: Synaptonemal complex protein 3 (SYCP3), human, Swissprot Q8IZU3, amino acids 1-236 (full length); The methods tell no TEV cleavage for SYCP3FL (only Ni-NTA and buffer exchange), so the His6 tag may have been kept; the printed theoretical tetramer size is 111 kDa; also called full length SYCP3; source: E. coli BL21(DE3) Rosetta2, purified (Ni-NTA, buffer exchange into 20 mM Tris pH 8.0, 500 mM KCl)
stoichiometry N [4]: 4

B3: SYCP3_(ΔCt6) ΔBP1 (amino acids 1–230, BP1 52-KRRKKR-57 mutated to alanines) (domain or fragment, human, UniProt Q8IZU3 1-230, looked up)
chain: T1 sequence with K52A, R53A, R54A, K55A, K56A, R57A
notes: Synaptonemal complex protein 3 (SYCP3), human, Swissprot Q8IZU3, amino acids 1-230 with basic patch 1 mutated to alanines; source: E. coli BL21(DE3) Rosetta2, purified as described for wild type SYCP3_(ΔCt6); not shown: His6, N-terminal, cleaved
stoichiometry N [5]: 4

B4: SYCP3_(ΔCt6) ΔBP2 (amino acids 1–230, BP2 88-KRKR-91 mutated to alanines) (domain or fragment, human, UniProt Q8IZU3 1-230, looked up)
chain: T1 sequence with K88A, R89A, K90A, R91A
notes: Synaptonemal complex protein 3 (SYCP3), human, Swissprot Q8IZU3, amino acids 1-230 with basic patch 2 mutated to alanines; source: E. coli BL21(DE3) Rosetta2, purified as described for wild type SYCP3_(ΔCt6); not shown: His6, N-terminal, cleaved
stoichiometry N [5]: 4

B5: SYCP3_(ΔCt6) ΔBP1+2 (amino acids 1–230, BP1 and BP2 mutated to alanines) (domain or fragment, human, UniProt Q8IZU3 1-230, looked up)
chain: T1 sequence with K52A, R53A, R54A, K55A, K56A, R57A, K88A, R89A, K90A, R91A
notes: Synaptonemal complex protein 3 (SYCP3), human, Swissprot Q8IZU3, amino acids 1-230 with both basic patches mutated to alanines; source: E. coli BL21(DE3) Rosetta2, purified as described for wild type SYCP3_(ΔCt6); not shown: His6, N-terminal, cleaved
stoichiometry N [5]: 4

B6: 60 bp FAM-dsDNA (dsDNA)
DNA 1: ATGGTGTGTGTAGGTTAATGTGAGGAGGAGAGGTGAAGAAGGAGGAGAGAAGAAGGAGGC
DNA 2: GCCTCCTTCTTCTCTCCTCCTTCTTCACCTCTCCTCCTCACATTAACCTACACACACCAT
Kd (SYCP3 dCt6 WT): 200 nM
